Assay results from patent US20060263855A1.

Target: α-Hemoglobin (αHb) (UniProt P69905)
Assay: cell-based or functional assay

Chain of UniProt P69905 (P69905 2-142): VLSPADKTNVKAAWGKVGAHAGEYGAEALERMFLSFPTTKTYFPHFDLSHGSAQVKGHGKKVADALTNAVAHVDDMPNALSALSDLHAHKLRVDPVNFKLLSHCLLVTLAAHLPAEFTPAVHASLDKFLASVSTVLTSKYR

Acceleration of rate of αHb oxidation by AHSP (ratio of oxidation rate constants): 6.2
Substance: α-hemoglobin stabilizing protein (AHSP) (from UniProt Q9NZD4 1-102)
